# Reference: the RNAGym collection of RNA variant scans (doi:10.7554/elife.80360)
# B1: Hairpin Ribozyme (parent)
# chain: GUCCUCUUUCACGUGCGCGUGAAAGAGAGAAGUGAACCAGAGAAACACACGUUGUGGUAUAUUACCUGGUA
# Variants of: B1
# Assay: self-cleavage, relative activity (ratio to wild type); higher = more cleavage; co-transcriptional
row,Variant,self-cleavage
1,A31C G42C,0.163
2,A31C G42U,0.092
3,G32U A36G,0.0896
4,G32U A36U,0.101
5,A30U A31G,0.143
6,G32A U62G,0.0972
7,G32U A61C,0.157
8,G32A A35U,0.153
9,G32A A35G,0.142
10,A31C G34A,0.163
11,G32U G42U,0.107
12,G32U G42C,0.127
13,A30G U58A,0.0366
14,A30G U58G,0.19
15,A30C A71G,0.247
16,A30C A71C,0.592
17,A31C U70A,0.131
18,G32A C66G,0.144
19,G32A C66A,0.147
20,A30U C37G,0.0899
21,A30U C37A,0.0959
22,G32A A61G,0.153
23,G32A A61C,0.0657
24,G32A C50U,0.101

row,Variant,self-cleavage
1,A30C A35C,0.181
2,A31G U67G,0.337
3,G32A G54C,0.117
4,A31G A39G,0.192
5,G32C G69U,0.203
6,A30C,0.183
7,A30G,0.153
8,A30U,0.142
9,A31G G57A,0.0901
10,A31G G57C,0.121
11,A30G C50G,0.177
12,G32U C66A,0.229
13,G32A G51A,0.156
14,G32A G40A,0.136
15,G32A G40U,0.0775
16,A31U C65A,0.127
17,A31U U58A,0.026
18,A31C A43C,0.25
19,A31C A43G,0.107
20,A30C A39G,0.1
21,A30C U60A,0.12
22,A31G A43G,0.207
23,A31G A43C,0.0574
24,A30G A31C,0.111

row,Variant,self-cleavage
1,A30G A31U,0.125
2,A31C G40A,0.131
3,A31C G40U,0.0621
4,G32U A59G,0.181
5,G32C G51U,0.154
6,A30C A43G,0
7,A31G G54A,0.378
8,A31G G54U,0.223
9,A31U A45C,0.191
10,G32C G54C,0.16
11,G32C U67A,0.134
12,G32C U67G,0.148
13,A30G A71G,0.109
14,A31C A49C,0.149
15,A31C A49U,0.151
16,G32U G34A,0.133
17,A30U G54C,0.0714
18,A31G C50A,0.146
19,G32C A49U,0.0382
20,G32C A49G,0.189
21,G32C G42C,0.137
22,G32C G42A,0.156
23,G32C G42U,0.213
24,G32C C65A,0.0926

row,Variant,self-cleavage
1,A31G A71G,0.651
2,G32C G40C,0.109
3,A31C A64C,0.134
4,A31G G68U,0.113
5,A30U G40U,0.129
6,A30U U33C,0.196
7,A30C G69U,0.124
8,G32U G54C,0.1
9,A31C U55C,0.208
10,A30U A47G,0.0659
11,G32A A49G,0.366
12,A30U C50U,0.0896
13,A30U C50A,0.221
14,A30C G68C,0.172
15,A30C G68U,0.141
16,G32A C38U,0.0584
17,G32A A47U,0.125
18,G32A A47G,0.133
19,A31U A49U,0.137
20,A31C C50U,0.0888
21,G32U A41U,0.0937
22,G32U A41C,0.105
23,A30G A41U,0.244
24,A30G G42C,0.169

row,Variant,self-cleavage
1,A30G G42A,0.113
2,A30G C65U,0.125
3,A31G A49G,0.241
4,A31G A49C,0.162
5,A31G C46U,0.142
6,A31G C46A,0.155
7,A31G C46G,0.0961
8,A30U U52A,0.158
9,G32U C50G,0.162
10,G32U C50U,0.119
11,G32C G34A,0.132
12,A30G U33C,0.0632
13,A31U G32U,0.125
14,A30U G34A,0.216
15,G32C A44U,0.22
16,G32C A44C,0.108
17,A30G U52C,0.116
18,A30G U52A,0.112
19,A31C U62G,0.223
20,A31U C66G,0.0934
21,A31C U52A,0.28
22,A31C U52C,0.196
23,A30U C65A,0.14
24,A30G C46A,0.202

row,Variant,self-cleavage
1,G32A G69A,0.0516
2,A30U C66U,0.083
3,G32C A41G,0.128
4,G32C G56U,0.156
5,A31C G51C,0.182
6,A31C C38U,0.131
7,A31U A59G,0.0459
8,A31G U55G,0.0654
9,G32C,0.127
10,G32A,0.153
11,G32U,0.13
12,A31C A39U,0.183
13,A31C A39G,0.09
14,A30G U60A,0.125
15,A30G U60G,0.158
16,A31U A35G,0.244
17,G32C C46A,0.109
18,A30G G54A,0.102
19,A31U C50G,0.152
20,A31U C50U,0.24
21,A31U C50A,0.113
22,A31U G54U,0.0633
23,A31U G54A,0.151
24,G32A C37G,0.0907

row,Variant,self-cleavage
1,G32C U70G,0.0915
2,A31C A44C,0.128
3,G32A A64U,0.204
4,A31C U60A,0.157
5,A30C C65G,0.166
6,A30G A44G,0.108
7,A30G A44C,0.169
8,A31C,0.131
9,A31U,0.129
10,A31G,0.729
11,A30C A31G,0.141
12,A30C A31C,0.159
13,A30G A43U,0.221
14,A31U G69U,0.105
15,A31C U33C,0.18
16,A30C U33A,0.0224
17,A30G U55G,0.232
18,A30G U55A,0.122
19,G32C U52A,0.0962
20,G32A C65U,0.174
21,A30G A39U,0.138
22,A30U A64G,0.106
23,A30U A64C,0.174
24,A31C G54U,0.0998

row,Variant,self-cleavage
1,A31C G54C,0.198
2,A30U A59C,0.153
3,A31C G69U,0.0958
4,A30U U55C,0.179
5,A30C G34A,0.0999
6,A31U A43G,0.134
7,G32A U60G,0.197
8,G32A U60C,0.256
9,A31G A59G,0.205
10,A31G A59U,0.184
11,G32A A71G,0.183
12,G32A G56A,0.179
13,G32A G56U,0.221
14,A30G A45U,0.177
15,A30U A45G,0.236
16,A30U A45U,0.129
17,A30U C46G,0.252
18,A30U C46A,0.128
19,G32C U60A,0.203
20,G32C U60G,0.112
21,A30G A47C,0.152
22,A30G A47G,0.0575
23,A31U A44U,0.286
24,A31U A44C,0.101

row,Variant,self-cleavage
1,G32C U58G,0.0601
2,G32U C37G,0.0126
3,A31G A44C,0.188
4,A30G A49U,0.0894
5,A30G A49G,0.0332
6,A30G A49C,0.0806
7,A30G A64C,0.0804
8,A30G A64G,0.141
9,A30G A64U,0.159
10,A31U C46U,0.205
11,A31U C46A,0.236
12,G32C C38A,0.061
13,A31G G42A,0.19
14,A31G G42U,0.19
15,A30U U58G,0.155
16,A30U U58C,0.107
17,G32U C46U,0.276
18,G32C A35U,0.132
19,A30G G40U,0.0805
20,G32U G51C,0.148
21,A31C A41G,0.102
22,A31C A41U,0.109
23,A31U G34C,0
24,A31U U33A,0.0513

row,Variant,self-cleavage
1,A30G U63A,0.0503
2,A30G U63G,0.101
3,A30G U63C,0.185
4,A30G G34U,0.932
5,A30C A47C,0.156
6,A30G G69U,0.0631
7,A30U A41C,0.256
8,G32C A36C,0.159
9,G32A U52G,0.141
10,G32A U52A,0.24
11,G32C A59G,0.15
12,G32C A59U,0.103
13,G32C A39G,0.111
14,A31U G42U,0.0854
15,A31U A61U,0.138
16,A31U A61C,0.111
17,A31C A47C,0.0953
18,A31C A47U,0.192
19,A31G A41U,1.37
20,A31G A41G,0.712
21,A30U U63C,0.0881
22,A31G G69C,0.199
23,G32A A45G,0.117
24,A30C A41U,0.364

row,Variant,self-cleavage
1,A31C C37G,0.146
2,A31G U53C,0.846
3,A31G U53A,0.673
4,G32U A47C,0.167
5,A31U U60G,0.115
6,A31G U63A,0.144
7,A31G U63C,0.105
8,G32U C65G,0.104
9,G32U C65A,0.064
10,G32U C65U,0.115
11,A30U A35U,0.196
12,A30U A35C,0.0881
13,A31G U62C,0.0965
14,G32A U70G,0.165
15,G32A U63G,0.126
16,A31G A64U,0.215
17,A30C U58C,0.158
18,G32A G57U,0.118
19,A31C U53C,0.0661
20,A31C U53G,0.176
21,A30G C37U,0.136
22,A30C G57C,0.0882
23,A30C G57A,0.158
24,G32A G42U,0.186

row,Variant,self-cleavage
1,A31U A41U,0
2,A31C U67A,0.2
3,A31C U67C,0.0604
4,G32C C66U,0.04
5,A31U A64U,0.134
6,A31U U55A,0.0885
7,A31C A35G,0.13
8,A30U U60G,0.0766
9,A30U U60C,0.306
10,G32A C48U,0.154
11,A31G A36G,0.57
12,G32A G68A,0.193
13,G32A G68C,0.1
14,G32A G68U,0.0821
15,A31G A47G,0.117
16,A31G A47C,0.2
17,A31G A47U,0.0555
18,A30C C48A,0.103
19,A30C C46U,0.367
20,A31U A71U,0.172
21,A31U A71G,0.226
22,A31U A71C,0.227
23,A31C A45G,0.0362
24,A31C A45U,0.0614

row,Variant,self-cleavage
1,A30C G54U,0.0809
2,A30G G56A,0.0987
3,A30G G56U,0.133
4,G32C C37A,0.125
5,A31G C66U,0.294
6,A31G C37U,0.349
7,A31U C38A,0.0669
8,A30C A45C,0.126
9,A30C U62G,0.134
10,G32A U55C,0.161
11,G32A U55G,0.15
12,A30G U62C,0.13
13,G32C U33A,0.168
14,A30G G51U,0.157
15,A30C U52G,0.113
16,A31U G56C,0.137
17,G32A U33A,0.139
18,G32U A71U,0.131
19,A30U G56C,0.15
20,A31U A47U,0.141
21,A30C A36C,0.164
22,A30C A36G,0.223
23,G32U A35C,0.107
24,G32A U67A,0.114

row,Variant,self-cleavage
1,G32A U67C,0.131
2,A31U G51A,0
3,A31U C37U,0.187
4,A30C C50G,0.142
5,A31U G68U,0.206
6,A30U A36G,0.248
7,A30U A36C,0.0422
8,G32A G34U,0.798
9,A30G C66G,0.184
10,A30G C66A,0.192
11,G32C A61C,0.222
12,A31G G51C,0.495
13,A31U U67C,0.0741
14,A30C C66G,0.248
15,A30G A61G,0.224
16,G32C G68A,0.097
17,A31C C48G,0.103
18,A31C C48A,0.115
19,G32C A47C,0.161
20,A31G U33G,0
21,A30G U67G,0.0921
22,A30G U67C,0.119
